Measurements from PMC9231368, “Production of GMP-Compliant Clinical Amounts of Copper-61 Radiopharmaceuticals from Liquid Targets” (Pharmaceuticals, 2022).
Positions of bridges follow the written chain, without caps; N, C: chain ends. Non-standard residues stand in square brackets, D forms with d. Residues, ends and D or L forms follow the SMILES beside them. *: point of attachment. DOTA = O=C(O)CN1CCN(CC(=O)O)CCN(CC(=O)*)CCN(CC(=O)O)CC1; 1Nal = N[C@@H](Cc1cccc2ccccc12)C(=O)O; Thr(ol) = C[C@@H](O)[C@H](N)CO

Experiment: Radiolysis during labelling reaction, with and without EtOH as radiolytic scavenger
Assay type: physicochemical
Settings: final product vial, radio-HPLC, single test
Text: The considerably high percentage of radiolysis in the final product vial (FPV), caused by the presence of free radicals in solution (e.g., superoxide or hydroxyl radicals), impaired the establishment of the most favourable labelling conditions. Although not explicitly measured, for higher activity concentrations, the radiolysis percentage was anticipated to increase. Several compounds are known to act as radiolytic stabilizers and protect against radiolysis. Antioxidant compounds, such as ascorbic acid (AA) and gentisic acid (GA), are commonly known to protect against radiolysis and are mainly described in the literature for radiolabelling biomolecules with β^--emitting radionuclides (e.g., yttrium-90 and luthetium-177). Notwithstanding, these compounds might have a negative impact on copper-based radiopharmaceuticals, given the redox properties of copper. […] To evaluate the applicability of EtOH as a radiolytic scavenger for ^61Cu-based radiopharmaceuticals, a single test with and without EtOH was performed before establishing optimal labelling conditions. […] Compared with the labelling of [^61Cu]Cu-DOTA-NOC without EtOH (Figure 4A), it is evident that there is a significant decrease in the rate of radiolysis using the ethanol-based method (Figure 4B–D). […] Based on these findings, the use of EtOH was implemented in all further labelling formulations to act as a radiolytic stabilizing agent during the labelling reaction.
Figure 4 Representative chromatograms of [^61Cu]Cu-DOTA-NOC, [^61Cu]Cu-DOTA-TOC and [^61Cu]Cu-DOTA-TATE without (A) and with (B–D) using EtOH (maximum 5 vol% EtOH) during the labelling reaction. Two different HPLC methods were used, as described in Table 4. For a more practical comparative analysis between chromatograms, raw data was normalised as percentage of total radioactivity. Percentage of radiolysis is the ratio of radiolysis counts to total counts. TEXT PRINTED IN THE PICTURE: (A) [^61Cu]Cu-DOTA-NOC: Radiolysis: > 15% | (B) [^61Cu]Cu-DOTA-NOC: Radiolysis: < 5% | (C) [^61Cu]Cu-DOTA-TOC: Radiolysis: < 1% | (D) [^61Cu]Cu-DOTA-TATE: Radiolysis: < 1%
RCP was measured by HPLC (Agilent 1200 series HPLC system, Agilent Technologies, Santa Clara, CA, USA) equipped with a GABIStar NaI(Tl) radiometric detector (Raytest Isotopenmessgeraete GmbH, Straubenhardt, Germany) (20 μL sample volume). Two different methods (Table 4) were used, one for [^61Cu]Cu-DOTA-NOC (Method A) and a second to evaluate both [^61Cu]Cu-DOTA-TATE and [^61Cu]Cu-DOTA-TOC (Method B). An ACE 3 C18 150 × 3 mm HPLC column (ACE, Reading, UK) was used in both methods, and the flow was fixed at 0.6 mL/min.

[1] = labelling with EtOH up to 300 μL (maximum 5 vol% EtOH)

SMILES	Radiolysis (ratio of radiolysis counts to total counts) [1]	Radiolysis (ratio of radiolysis counts to total counts) (labelling without EtOH)
C[C@@H](O)[C@@H]1NC(=O)[C@H](CCCCN)NC(=O)[C@@H](Cc2c[nH]c3ccccc23)NC(=O)[C@H](Cc2cccc3ccccc23)NC(=O)[C@@H](NC(=O)[C@@H](Cc2ccccc2)NC(=O)CN2CCN(CC(=O)O)CCN(CC(=O)O)CCN(CC(=O)O)CC2)CSSC[C@@H](C(=O)N[C@H](CO)[C@@H](C)O)NC1=O [[^61Cu]Cu-DOTA-NOC, metal not drawn] ({DOTA}-[dF]C[1Nal][dW]KTC[Thr(ol)]; disulfide 2-7 (inferred))	less than 5%	more than 15%
C[C@@H](O)[C@H](NC(=O)[C@@H]1CSSC[C@H](NC(=O)[C@@H](Cc2ccccc2)NC(=O)CN2CCN(CC(=O)O)CCN(CC(=O)O)CCN(CC(=O)O)CC2)C(=O)N[C@@H](Cc2ccc(O)cc2)C(=O)N[C@H](Cc2c[nH]c3ccccc23)C(=O)N[C@@H](CCCCN)C(=O)N[C@@H]([C@@H](C)O)C(=O)N1)C(=O)O [[^61Cu]Cu-DOTA-TATE, metal not drawn]	less than 1%	–
C[C@@H](O)[C@@H]1NC(=O)[C@H](CCCCN)NC(=O)[C@@H](Cc2c[nH]c3ccccc23)NC(=O)[C@H](Cc2ccc(O)cc2)NC(=O)[C@@H](NC(=O)[C@@H](Cc2ccccc2)NC(=O)CN2CCN(CC(=O)O)CCN(CC(=O)O)CCN(CC(=O)O)CC2)CSSC[C@@H](C(=O)N[C@H](CO)[C@@H](C)O)NC1=O [[^61Cu]Cu-DOTA-TOC, metal not drawn]	less than 1%	–
